This is an account of results in US20260265379A1.

B1: bsAb039 (bispecific antibody, not shown: small tags and cut ends; a dimerising Fc or GST)
heavy (part 1 of 2): QVQLVQSGVEVKKPGASVKVSCKASGYTFTNYYMYWVRQAPGQGLEWMGGINPSNGGTNFNEKFKNRVTLTTDSSTTTAYMELKSLQFDDTAVYYCARRDYRFDMGFDYWGQGTTVTVSS
heavy (part 2 of 2): GGGGSGGGGSGGGGSGGGGSDIQMTQSPSSLSASVGDRVTITCHASQNINVWLSWYQQKPGKAPKLLIYKASNLHTGVPSRFTGSGSGTDFTFTISSLQPEDIATYYCQQGQTYPYTFGQGTKLEIKGGGGSGGGGSGGGGSGGGGSQVQLVQSGAEVKKPGASVKLSCKASGYIFTRYYMYWVKQRPGQGLEWIGEINPNNGGTKFNEKFKNRATLTVDKSISTAYMELSRLRSDDTAVYYCSREDDYDGTPFAMDYWGQGTLVTVSS
heavy: B1 heavy (part 2 of 2)
light: EIVLTQSPATLSLSPGERATLSCRASKGVSTSGYSYLHWYQQKPGQAPRLLIYLASYLESGVPARFSGSGSGTDFTLTISSLEPEDFAVYYCQHSRDLPLTFGGGTKVEIKRTVAAPSVFIFPPSDEQLKSGTASVVCLLNNFYPREAKVQWKVDNALQSGNSQESVTEQDSKDSTYSLSSTLTLSKADYEKHKVYACEVTHQGLSSPVTKSFNRGEC
B2: bsAb053 (bispecific antibody, not shown: small tags and cut ends)
heavy (part 1 of 2): B1 heavy (part 1 of 2)
heavy (part 2 of 2): GGGGSGGGGSGGGGSGGGGSQVQLVQSGAEVKKPGASVKLSCKASGYIFTRYYMYWVKQRPGQGLEWIGEINPNNGGTKFNEKFKNRATLTVDKSISTAYMELSRLRSDDTAVYYCSREDDYDGTPFAMDYWGQGTLVTVSSGGGGSGGGGSGGGGSGGGGSDIQMTQSPSSLSASVGDRVTITCHASQNINVWLSWYQQKPGKAPKLLIYKASNLHTGVPSRFTGSGSGTDFTFTISSLQPEDIATYYCQQGQTYPYTFGQGTKLEIK
heavy: B1 heavy (part 1 of 2)
light: B1 light
B3: bsAb042 (bispecific antibody, not shown: small tags and cut ends; a dimerising Fc or GST)
heavy 1: B1 heavy (part 1 of 2)
heavy 2: QVQLVQSGAEVKKPGASVKLSCKASGYIFTRYYMYWVKQRPGQGLEWIGEINPNNGGTKFNEKFKNRATLTVDKSISTAYMELSRLRSDDTAVYYCSREDDYDGTPFAMDYWGQGTLVTVSSGGGGSGGGGSGGGGSGGGGSDIQMTQSPSSLSASVGDRVTITCHASQNINVWLSWYQQKPGKAPKLLIYKASNLHTGVPSRFTGSGSGTDFTFTISSLQPEDIATYYCQQGQTYPYTFGQGTKLEIKGGGGSGGGGSGGGGSGGGGS
light: EIVLTQSPATLSLSPGERATLSCRASKGVSTSGYSYLHWYQQKPGQAPRLLIYLASYLESGVPARFSGSGSGTDFTLTISSLEPEDFAVYYCQHSRDLPLTFGGGTKVEIKRTVAAPSVFIFPPSDEQLKSGTASVVCLLNNFYPREAKVQWKVDNALQSGNSQESVTEQDSKDSTYSLSSTLTLSKADYEKHKVYACEVTHQGLSSPVTKSFNRGECGGGGSGGGGSGGGGSGGGGSDIQMTQSPSSLSASVGDRVTITCHASQNINVWLSWYQQKPGKAPKLLIYKASNLHTGVPSRFTGSGSGTDFTFTISSLQPEDIATYYCQQGQTYPYTFGQGTKLEIKGGGGSGGGGSGGGGSGGGGSQVQLVQSGAEVKKPGASVKLSCKASGYIFTRYYMYWVKQRPGQGLEWIGEINPNNGGTKFNEKFKNRATLTVDKSISTAYMELSRLRSDDTAVYYCSREDDYDGTPFAMDYWGQGTLVTVSS
B4: bsAb059 (bispecific antibody)
heavy: QVQLVQSGVEVKKPGASVKVSCKASGYTFTNYYMYWVRQAPGQGLEWMGGINPSNGGTNFNEKFKNRVTLTTDSSTTTAYMELKSLQFDDTAVYYCARRDYRFDMGFDYWGQGTTVTVSSASTKGPSVFPLAPSSKSTSGGTAALGCLVKDYFPEPVTVSWNSGALTSGVHTFPAVLQSSGLYSLSSVVTVPSSSLGTQTYICNVNHKPSNTKVDKRVEPKSCDKTHTCPPCPAPEFEGGPSVFLFPPKPKDTLMISRTPEVTCVVVDVSHEDPEVKFNWYVDGVEVHNAKTKPREEQYNSTYRVVSVLTVLHQDWLNGKEYKCKVSNKALPASIEKTISKAKGQPREPQVYTLPPSREEMTKNQVSLTCLVKGFYPSDIAVEWESNGQPENNYKTTPPVLDSDGSFFLYSKLTVDKSRWQQGNVFSCSVMHEALHNHYTQKSLSLSPG
light: QVQLVQSGAEVKKPGASVKLSCKASGYIFTRYYMYWVKQRPGQGLEWIGEINPNNGGTKFNEKFKNRATLTVDKSISTAYMELSRLRSDDTAVYYCSREDDYDGTPFAMDYWGQGTLVTVSSGGGGSGGGGSGGGGSGGGGSDIQMTQSPSSLSASVGDRVTITCHASQNINVWLSWYQQKPGKAPKLLIYKASNLHTGVPSRFTGSGSGTDFTFTISSLQPEDIATYYCQQGQTYPYTFGQGTKLEIKGGGGSGGGGSGGGGSGGGGSEIVLTQSPATLSLSPGERATLSCRASKGVSTSGYSYLHWYQQKPGQAPRLLIYLASYLESGVPARFSGSGSGTDFTLTISSLEPEDFAVYYCQHSRDLPLTFGGGTKVEIKRTVAAPSVFIFPPSDEQLKSGTASVVCLLNNFYPREAKVQWKVDNALQSGNSQESVTEQDSKDSTYSLSSTLTLSKADYEKHKVYACEVTHQGLSSPVTKSFNRGEC
B5: bsAb060 (bispecific antibody)
heavy: B4 heavy
light: DIQMTQSPSSLSASVGDRVTITCHASQNINVWLSWYQQKPGKAPKLLIYKASNLHTGVPSRFTGSGSGTDFTFTISSLQPEDIATYYCQQGQTYPYTFGQGTKLEIKGGGGSGGGGSGGGGSGGGGSQVQLVQSGAEVKKPGASVKLSCKASGYIFTRYYMYWVKQRPGQGLEWIGEINPNNGGTKFNEKFKNRATLTVDKSISTAYMELSRLRSDDTAVYYCSREDDYDGTPFAMDYWGQGTLVTVSSGGGGSGGGGSGGGGSGGGGSEIVLTQSPATLSLSPGERATLSCRASKGVSTSGYSYLHWYQQKPGQAPRLLIYLASYLESGVPARFSGSGSGTDFTLTISSLEPEDFAVYYCQHSRDLPLTFGGGTKVEIKRTVAAPSVFIFPPSDEQLKSGTASVVCLLNNFYPREAKVQWKVDNALQSGNSQESVTEQDSKDSTYSLSSTLTLSKADYEKHKVYACEVTHQGLSSPVTKSFNRGEC

Chain of BTN3A expressed at the cell surface (human), O00481 (O00481 30-513): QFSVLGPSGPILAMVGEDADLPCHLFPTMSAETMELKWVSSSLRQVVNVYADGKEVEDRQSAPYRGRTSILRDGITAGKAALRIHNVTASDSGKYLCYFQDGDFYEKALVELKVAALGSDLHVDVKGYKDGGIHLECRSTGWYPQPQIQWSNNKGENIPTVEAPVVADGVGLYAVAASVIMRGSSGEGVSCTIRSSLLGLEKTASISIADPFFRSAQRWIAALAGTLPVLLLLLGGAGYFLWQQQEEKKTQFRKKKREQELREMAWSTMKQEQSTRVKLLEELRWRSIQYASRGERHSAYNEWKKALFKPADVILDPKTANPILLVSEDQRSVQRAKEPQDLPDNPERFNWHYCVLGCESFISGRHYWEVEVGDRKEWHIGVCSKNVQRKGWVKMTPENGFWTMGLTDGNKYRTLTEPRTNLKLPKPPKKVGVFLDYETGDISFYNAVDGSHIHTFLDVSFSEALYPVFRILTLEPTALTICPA

The assay concerns the target BTN3A expressed at the cell surface (human), O00481. Briefly: cell-based or functional assay.
On to B1, for which the Jurkat-Vy9Vo2 TCR MOP activation at 0.5 nM (fold-change to medium) stood at 0.9 and the Jurkat-Vy9Vo2 TCR MOP activation at 5 nM (fold-change to medium) is 1.
The molecule B2 had a Jurkat-Vy9Vo2 TCR MOP activation at 0.5 nM (fold-change to medium) of 1.2 and a Jurkat-Vy9Vo2 TCR MOP activation at 5 nM (fold-change to medium) of 1.1.
On the same counts, the results for B3 are 1.1 and 1.
In the case of B4, the Jurkat-Vy9Vo2 TCR MOP activation at 0.5 nM (fold-change to medium) was 1.1 and the Jurkat-Vy9Vo2 TCR MOP activation at 5 nM (fold-change to medium) was 1.1.
B5 yielded a Jurkat-Vy9Vo2 TCR MOP activation at 0.5 nM (fold-change to medium) of 1.1 and a Jurkat-Vy9Vo2 TCR MOP activation at 5 nM (fold-change to medium) of 1.1.
